From patent US20210079071A1 (published 2021)
Positions count from the first letter of the chain named. Where two headings read alike, the source gives them in different places.

T1: vWbp-(1-263) (Staphylococcus aureus)
T1 chain: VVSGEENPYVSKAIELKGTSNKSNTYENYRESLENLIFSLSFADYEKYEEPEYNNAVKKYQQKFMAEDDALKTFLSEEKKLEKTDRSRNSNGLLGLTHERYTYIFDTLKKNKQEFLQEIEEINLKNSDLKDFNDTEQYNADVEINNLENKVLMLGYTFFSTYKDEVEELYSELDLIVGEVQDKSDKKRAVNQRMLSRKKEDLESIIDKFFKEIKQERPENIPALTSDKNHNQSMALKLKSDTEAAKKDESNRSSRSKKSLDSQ

T2: BODIPY-labeled staphylocoagulase SC (S7C)(1-325) (Staphylococcus aureus, UniProt P17855 27-351)
T2 sequence: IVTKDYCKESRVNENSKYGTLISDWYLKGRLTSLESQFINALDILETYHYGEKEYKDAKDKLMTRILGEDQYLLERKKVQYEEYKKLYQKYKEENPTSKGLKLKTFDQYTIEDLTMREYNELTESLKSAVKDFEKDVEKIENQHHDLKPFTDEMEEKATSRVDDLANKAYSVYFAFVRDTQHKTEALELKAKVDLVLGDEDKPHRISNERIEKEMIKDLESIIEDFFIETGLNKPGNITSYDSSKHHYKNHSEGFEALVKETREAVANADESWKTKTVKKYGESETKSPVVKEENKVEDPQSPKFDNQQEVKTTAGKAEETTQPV

T3: Staphylocoagulase fragment SC(1-246), unlabeled (Staphylococcus aureus, UniProt P17855 27-272)
T3 sequence: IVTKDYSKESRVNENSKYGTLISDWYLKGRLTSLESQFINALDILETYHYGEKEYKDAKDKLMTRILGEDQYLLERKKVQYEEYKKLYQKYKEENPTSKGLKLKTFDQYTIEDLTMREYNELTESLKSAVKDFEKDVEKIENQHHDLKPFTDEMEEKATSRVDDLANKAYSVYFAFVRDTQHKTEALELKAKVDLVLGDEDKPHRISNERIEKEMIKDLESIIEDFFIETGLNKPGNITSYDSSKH

T4: vWbp-(1-474) (Staphylococcus aureus)
T4 chain: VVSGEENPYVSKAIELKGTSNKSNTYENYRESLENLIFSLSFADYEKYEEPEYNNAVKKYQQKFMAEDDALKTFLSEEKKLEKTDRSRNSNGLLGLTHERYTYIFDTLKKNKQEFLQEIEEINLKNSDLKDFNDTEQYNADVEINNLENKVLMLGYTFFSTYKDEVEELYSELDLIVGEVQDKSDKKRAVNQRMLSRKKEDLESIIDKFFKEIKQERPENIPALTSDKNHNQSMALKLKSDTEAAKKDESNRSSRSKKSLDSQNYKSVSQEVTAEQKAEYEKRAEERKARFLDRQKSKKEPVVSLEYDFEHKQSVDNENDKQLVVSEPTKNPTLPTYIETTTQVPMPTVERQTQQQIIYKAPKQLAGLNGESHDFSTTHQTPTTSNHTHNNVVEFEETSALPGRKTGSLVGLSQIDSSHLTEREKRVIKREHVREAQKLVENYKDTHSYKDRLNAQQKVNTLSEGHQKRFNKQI

T5: SC-(1-325), unlabeled (Staphylococcus aureus, UniProt P17855 27-351)
T5 sequence: T2 sequence with C7S

B1: GMA-2500 murine anti-vWbp monoclonal antibody (antibody, V domains shown)
VH: EVQLQQSGTVLARPGASVKMSCKTSGYSFTSYWIHWVKQRPGQGLEWIGAISPGNSDTNYNQNFKGKAKLTAVTSASTAYMELSSLTTEDSAVYYCATGSHYWGQGTTLSVSS
VL: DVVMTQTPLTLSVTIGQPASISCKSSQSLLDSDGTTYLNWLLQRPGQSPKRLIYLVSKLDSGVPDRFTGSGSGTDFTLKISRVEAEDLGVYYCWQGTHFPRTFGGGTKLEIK
notes: also called 10C9.D1.B6
B2: GMA-2105 murine anti-staphylocoagulase monoclonal antibody (antibody, V domains shown)
VH: EVKLEESGGGLVQPGGSMKLSCAASGFTFSDAWMDWVRQSPEKGLEWVAEIRTKANNHATYYAESVKGRFTISRDDSKSSVYLQMNSLRAEDTGIYYCTNVYYGNNDVKDYWGQGTSVTVSP
VL: DIVMTQSQKFMSTSVGDRVSVTCKASQNVDIYVAWYQQKPGQSPKALIYSASYRFSGVPDRFTGSGSGTDFTLSISNVQSEDLAEYFCQQYNNYPYTFGGGTKLEIKR
notes: also called 2A1.5H4.B7; anti-SC Ab
B3: Chimeric GMA-2105 (mouse variable regions on human constant regions) (antibody, V domains shown)
VH: B2 VH
VL: B2 VL

Columns and labels:
vWbp-(1-263) [1] = target: T1, vWbp-(1-263); assay: ELISA: purified GMA-2500 on the preparation 'vWbp 1-263 WT 011113, RIF0540D', A490
[2] = target: vWbp peptide vWbp(1-12), […], unconjugated (Staphylococcus aureus); assay: ELISA, unconjugated peptide
[3] = target: vWbp peptide vWbp(1-12) conjugated to ovalbumin (Staphylococcus aureus); assay: ELISA: purified GMA-2500 on vWbp peptide-ovalbumin, A490
vWbp-(1-263) [4] = target: T1, vWbp-(1-263); assay: ELISA: purified GMA-2500 on the preparation 'vWbp 1-263 022109, RIF 0540E', A490
[5] = target: T2, BODIPY-labeled staphylocoagulase SC …; assay: equilibrium titration in solution, increase in BODIPY fluorescence
[6] = target: T2, BODIPY-labeled staphylocoagulase SC …; assay: fluorescence titration of BODIPY-SC(S7C)(1-325) with GMA-2105
[7] = target: T3, Staphylocoagulase fragment SC(1-246), …; assay: competitive displacement of BODIPY-labeled staphylocoagulase from GMA-2105 in solution, fluorescence
vWbp-(1-474) = target: T4, vWbp-(1-474); assay: Western blot of recombinant proteins, probed with GMA-2105
vWbp-(1-263) [8] = target: T1, vWbp-(1-263); assay: as above
[9] = target: T3, Staphylocoagulase fragment SC(1-246), …
[10] = target: T2, BODIPY-labeled staphylocoagulase SC …; assay: fit of the fluorescence titrations; row 'Probe SC(1-246) S7C-BodipyFL'
[11] = target: T2, BODIPY-labeled staphylocoagulase SC …
SC-(1-325), unlabeled = target: T5, SC-(1-325), unlabeled; assay: Western blot of recombinant proteins; by the text, primary antibody at 10 µg/mL, HRP anti-mouse IgG, chemiluminescence
Description: The elaborated proteins were transferred to PVDF membrane for western blot analysis to probe the specificity and cross-reactivity of the monoclonal antibodies targeting the critical N-termini of either SC or vWbp. […] Following primary antibody treatment, blots were washed and probed with horseradish peroxidase-labeled rabbit anti-mouse IgG that lacked the constant region and then imaged for chemiluminescence substrate oxidation using a Fuji-Films LAS1000. The blot was stripped between primary antibody challenges. […] To accomplish this, the blot was probed with the both the SC and vWbp neutralizing antibodies and then stained for total mouse IgG content using an anti-mouse IgG (H+L)-FITC polyclonal antibody.

Mutated Peptide Ala 8 = Mutated Peptide Ala 8 (Staphylococcus aureus); assay: solid phase competitive inhibition ELISA
[12] = target: Mutated Peptide Ala 8 & 9 (Staphylococcus aureus); assay: solid phase competitive inhibition ELISA
Mutated Peptide Ala 9 = Mutated Peptide Ala 9 (Staphylococcus aureus); assay: solid phase competitive inhibition ELISA
[13] = target: T2, BODIPY-labeled staphylocoagulase SC …; assay: equilibrium titration in solution, increase in BODIPY fluorescence, quadratic binding equation
[14] = target: T2, BODIPY-labeled staphylocoagulase SC …; assay: fluorescence titration of BODIPY-labeled SC(1-325) with chimeric GMA-2105

Binder | EC50 (read off the curve) (vWbp-(1-263) [1]) [µg/mL] | binding result [2] | EC50 (read off the curve) [3] [µg/mL] | EC50 (read off the curve) (vWbp-(1-263) [4]) [µg/mL] | stoichiometry [5] | stoichiometry [6] | Kd [7] [nM] | binding result (vWbp-(1-474)) | binding result (vWbp-(1-263) [8]) | Kd [9] [nM] | Stoichiometry (mol mAb / mol wild type) [9] [mol mAb / mol wild type] | Kd [10] [nM] | Stoichiometry (mol mAb / mol probe) [10] [mol mAb / mol probe] | Kd [11] [nM] | binding result (SC-(1-325), unlabeled) | binding result (Mutated Peptide Ala 8) | binding result [12] | binding result (Mutated Peptide Ala 9) | Kd [13] [nM] | stoichiometry [14]
B1 | ~0.1 | binds | ~0.1 | ~0.1 | – | – | – | – | – | – | – | – | – | – | – | – | – | – | – | –
B2 | – | – | – | – | 1.6 mol BODIPY-SC/mol GMA-2105 | 2 mol staphylocoagulase/mol GMA-2105 | 4 | no binding (tested: 10 µg/mL (from the text)) | no binding (tested: 10 µg/mL (from the text)) | 0.71 | 1.2 | 1.09 | 0.99 | 0.99 | binds | binds | binds | binds | 2 | –
B3 | – | – | – | – | – | – | – | – | – | 0.75 | 1.35 | 0.79 | 0.94 | – | – | – | – | – | – | 2 mol staphylocoagulase/mol chimeric antibody
